Results taken from patent US20240350588A1 (SUNSHINE LAKE PHARMA, published 2024).
Where a chain is given by its changes, count along the chain named. One block for each binder: values may come before it.

Molecular target: T1, human GFRAL (UniProtKB-Q6UXVO) (human, UniProt Q6UXV0 19-394)
T1 sequence (looked up): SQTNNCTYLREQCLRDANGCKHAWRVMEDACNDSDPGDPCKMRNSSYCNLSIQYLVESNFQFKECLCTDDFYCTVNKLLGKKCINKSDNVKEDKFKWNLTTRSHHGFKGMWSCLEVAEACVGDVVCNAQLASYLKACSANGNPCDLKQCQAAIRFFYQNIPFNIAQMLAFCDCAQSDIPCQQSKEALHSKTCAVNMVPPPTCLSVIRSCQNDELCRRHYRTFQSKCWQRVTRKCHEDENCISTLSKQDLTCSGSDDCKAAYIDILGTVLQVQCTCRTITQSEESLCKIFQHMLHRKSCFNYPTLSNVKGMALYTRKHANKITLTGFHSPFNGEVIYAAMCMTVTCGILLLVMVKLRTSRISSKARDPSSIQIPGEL
Assay: cell-based or functional assay

B1: Fc-GDF15 fusion protein M21 (Fc fusion)
chain: APEAAGGPSVFLFPPKPKDTLMISRTPEVTCVVVDVSQEDPEVQFNWYVDGVEVHNAKTKPREEQFNSTYRVVSVLTVLHQDWLNGKEYKCKVSNKGLPSSIEKTISKAKGQPREPQVYTLPPSQEEMTKNQVSLTCLVKGFYPSDIAVEWESNGQPENNYKTTPPVLDSDGSFFLYSRLTVDKSRWQEGNVFSCSVMHEALHNHYTQESLSLSLGGGGGSGGGGSAPAPAPAPAPAPAPAPAPAPGGGGSGGGGSDCPLGPGRCCRLHTVRASLEDLGWADWVLSPREVQVTMCIGACPSQFRAANMHAQIKTSLHRLKPDTVPAPCCVPASYNPMVLIQKTDTGVSLQTYDDLLAKDCHCI
Relative activity ratio (native GDF15 EC50: Fc-GDF15 construct EC50), ERK1/2 phosphorylation HTRF in HEK293T cells expressing human GFRAL and RET: 3.87 ratio

B3: Fc-GDF15 fusion protein M23 (Fc fusion)
chain: B1 chain with D257E
Relative activity ratio (native GDF15 EC50: Fc-GDF15 construct EC50), ERK1/2 phosphorylation HTRF in HEK293T cells expressing human GFRAL and RET: 3.38 ratio

B7: Fc-GDF15 fusion protein M27 (Fc fusion)
chain: APEAAGGPSVFLFPPKPKDTLMISRTPEVTCVVVDVSQEDPEVQFNWYVDGVEVHNAKTKPREEQFNSTYRVVSVLTVLHQDWLNGKEYKCKVSNKGLPSSIEKTISKAKGQPREPQVYTLPPSQEEMTKNQVSLTCLVKGFYPSDIAVEWESNGQPENNYKTTPPVLDSDGSFFLYSRLTVDKSRWQEGNVFSCSVMHEALHNHYTQESLSLSLGGGGGSGGGGSAPAPAPAPAPAPAPAPAPAPGGGGSGGGGSDHCPLGPGRCCRLHTVRASLEELGWADWVLSPREVQVTMCIGACPSQFRAANMHAQIKTSLHRLRPDTVPAPCCVPASYNPMVLIQKTDTGVSLQTYDDLLAKDCHCI
Relative activity ratio (native GDF15 EC50: Fc-GDF15 construct EC50), ERK1/2 phosphorylation HTRF in HEK293T cells expressing human GFRAL and RET: 2.66 ratio

Further lines, results first:

Relative activity ratio (native GDF15 EC50: Fc-GDF15 construct EC50), ERK1/2 phosphorylation HTRF in HEK293T cells expressing human GFRAL and RET: 1.42 ratio
B2: Fc-GDF15 fusion protein M22 (Fc fusion)
chain: B7 chain with H258E, E278D, R321K

Relative activity ratio (native GDF15 EC50: Fc-GDF15 construct EC50), ERK1/2 phosphorylation HTRF in HEK293T cells expressing human GFRAL and RET: 2.65 ratio
B4: Fc-GDF15 fusion protein M24 (Fc fusion)
chain: B7 chain with R273Q, E278D, R321K

Relative activity ratio (native GDF15 EC50: Fc-GDF15 construct EC50), ERK1/2 phosphorylation HTRF in HEK293T cells expressing human GFRAL and RET: 4.76 ratio
B5: Fc-GDF15 fusion protein M25 (Fc fusion)
chain: B7 chain with R273H, E278D, R321K

Relative activity ratio (native GDF15 EC50: Fc-GDF15 construct EC50), ERK1/2 phosphorylation HTRF in HEK293T cells expressing human GFRAL and RET: 2.91 ratio
B6: Fc-GDF15 fusion protein M26 (Fc fusion)
chain: B7 chain with R321K
